B1: E-cadherin-Fc: fusion protein of mouse E-cadherin extracellular domain and mutated IgG1-Fc domain (T252M/T254S) (protein)
chain: DWVIPPISCPENEKGEFPKNLVQIKSNRDKETKVFYSITGQGADKPPVGVFIIERETGWLKVTQPLDREAIAKYILYSHAVSSNGEAVEDPMEIVITVTDQNDNRPEFTQPVFEGFVAEGAVPGTSVMKVSATDADDDVNTYNAAIAYTIVSQDPELPHKNMFTVNRDTGVISVLTSGLDRESYPTYTLVVQAADLQGEGLSTTAKAVITVKDINDNAPVFNPSTYQGQVPENEVNARIATLKVTDDDAPNTPAWKAVYTVVNDPDQQFVVVTDPTTNDGILKTAKGLDFEAKQQYILHVRVENEEPFEGSLVPSTATVTVDVVDVNEAPIFMPAERRVEVPEDFGVGQEITSYTAREPDTFMDQKITYRIWRDTANWLEINPETGAIFTRAEMDREDAEHVKNSTYVALIIATDDGSPIATGTGTLLLVLLDVNDNAPIPEPRNMQFCQRNPQPHIITILDPDLPPNTSPFTAELTHGASVNWTIEYNDAAQESLILQPRKDLEIGEYKIHLKLADNQNKDQVTTLDVHVCDCEGTVNNCMKAGIVAAGLQV
modifications: left off: a dimerising Fc or GST
B2: recombinant E-cadherin: recombinant E-cadherin (hRP-0339, manufactured by LD Biopharma) (protein, UniProt P12830 155-882, looked up)
Cadherin-1: DWVIPPISCPENEKGPFPKNLVQIKSNKDKEGKVFYSITGQGADTPPVGVFIIERETGWLKVTEPLDRERIATYTLFSHAVSSNGNAVEDPMEILITVTDQNDNKPEFTQEVFKGSVMEGALPGTSVMEVTATDADDDVNTYNAAIAYTILSQDPELPDKNMFTINRNTGVISVVTTGLDRESFPTYTLVVQAADLQGEGLSTTATAVITVTDTNDNPPIFNPTTYKGQVPENEANVVITTLKVTDADAPNTPAWEAVYTILNDDGGQFVVTTNPVNNDGILKTAKGLDFEAKQQYILHVAVTNVVPFEVSLTTSTATVTVDVLDVNEAPIFVPPEKRVEVSEDFGVGQEITSYTAQEPDTFMEQKITYRIWRDTANWLEINPDTGAISTRAELDREDFEHVKNSTYTALIIATDNGSPVATGTGTLLLILSDVNDNAPIPEPRTIFFCERNPKPQVINIIDADLPPNTSPFTAELTHGASANWTIQYNDPTQESIILKPKMALEVGDYKINLKLMDNQNKDQVTTLEVSVCDCEGAAGVCRKAQPVEAGLQIPAILGILGGILALLILILLLLLFLRRRAVVKEPLLPPEDDTRDNVYYYDEEGGGEEDQDFDLSQLHRGLDARPEVTRNDVAPTLMSVPRYLPRPANPDEIGNFIDENLKAADTDPTAPPYDSLLVFDYEGSGSEAASLSSLNSSESDKDQDYDYLNEWGNRFKKLADMYGGGEDD

Experiments:
Type in all cases: cell-based, human
hiPS cells (TkDN4-M) [1] = assay: Diameters of cell aggregates in rotation suspension culture in mTeSR1 (Example 1)
Description: As pluripotent stem cells, hiPS cells (TkDN4-M, Stem Cell Bank, The University of Tokyo) were used. These cells were plated on the above culture plate at a density of 100,000 to 400,000 cells/well, and cultured for four days. The culture was carried out using, as a culture medium, 2 mL/well of mTeSR®1 (manufactured by StemCell Technologies). During the culture, medium replacement was carried out every day except for the day after the plating.
For detachment and collection of cells, TrypLE® select (manufactured by Life Technologies), which is a trypsin-like enzyme, was used. After removal of the culture liquid, TrypLE® select was added to the wells at 1 mL/well, and the plate was incubated at 37° C. for 2 to 5 minutes. Thereafter, TrypLE® select was removed, and mTeSR®1 supplemented with 10 μM Y-27632, which is a ROCK inhibitor, was added to the wells at 2 mL/well, followed by pipetting using a 1000-μL micropipette to detach the cells. The collected cell suspension was passed through a 40-μm cell strainer (BD) to collect the cells as single cells and/or microaggregates, to thereby obtain cells to be applied to suspension culture.
In the following Examples and Comparative Examples, morphology and sizes of cell aggregates during the culture period were observed and measured using a phase-contrast microscope (product name, DM IRB; manufactured by LEICA). […]

hiPS cells (TkDN4-M) [2] = assay: Measurement of glucose consumption, mTeSR1 culture (Example 1); conditions: Day 5 of the culture
Description: (§1) […] The sizes of the aggregates 48 hours after the E-cadherin-Fc treatment were within the range of 300 to 700 μm. Subsequently, medium replacement was carried out, and culture was carried out for three days under the same conditions as described above except that E-cadherin-Fc was not added, to obtain aggregates. The sizes of the aggregates were within the range of 500 to 1000 μm.
(§2) During the whole culture period, 300 μL of the culture liquid was collected upon replacement of the medium, and the glucose concentration was analyzed using an enzyme-electrode type bioanalyzer (YS12950) to calculate changes in the glucose consumption.

hiPS cells (TkDN4-M) [3] = assay: Measurement of live cell number after culture, mTeSR1 (Example 1); conditions: Day 5 of the culture
Description: as §1
(§3) After completion of the culture, the cells were dispersed into single cells using TrypLE® select, and the number of live cells was counted using trypan blue (manufactured by Life Technologies) and an eosinophil counter (manufactured by Tatai).

hiPS cells (TkDN4-M) [4] = assay: Observation of cell aggregates after 1 day of rotation culture (Example 2); conditions: 10 μg/ml, FIG. 5; for uniformity of aggregate diameters compared to Comparative Example 2-1: mTeSR1, rotation culture 90 rpm for 1 day
Description: To a 12-well plate subjected to low-cell-adhesion treatment, 1 mL of mTeSR®1 was added, and hiPS cells (TkDN4-M, Stem Cell Bank, The University of Tokyo) ([…] cells/ml) provided in advance and, as a substance that inhibits a cell adhesion molecule(s) of the hiPS cells, recombinant E-cadherin (hRP-0339, manufactured by LD Biopharma) (10 μg/ml) were added at the same time, followed by performing rotation culture at a speed of 90 rpm for 1 day.
Aggregates were obtained in the same manner as in Example 2-1 except that a neutralizing antibody against E-cadherin (E-cadherin antibody MAB3199Z, manufactured by Millipore) ([…]) was used as the substance that inhibits a cell adhesion molecule(s) of the hiPS cells in Example 2-2.
Aggregates were obtained in the same manner as in Example 2-1 except that E-cadherin-Fc (10 μg/ml) was used as the substance that inhibits a cell adhesion molecule(s) of the hiPS cells in Example 2-3.
Morphology of cell aggregates in Examples 2-1 to 2-3 and Comparative Example 2-1 was observed using a phase-contrast microscope (product name. DM IRB; manufactured by LEICA).

hiPS cells (TkDN4-M) [5] = assay: Observation of cell aggregates in rotation suspension culture in Essential 8 (Example 3); conditions: Day 5 of the culture, Essential 8, E-cadherin-Fc 50 or 100 μg/ml for first 48 hours, 100 rpm
Description: (§4) To a 12-well plate subjected to low-cell-adhesion treatment, 1 mL of Essential 8® was added, and hiPS cells (TkDN4-M, Stem Cell Bank, The University of Tokyo) (2×10^5 cells/ml) provided in advance and, as a substance that inhibits a cell adhesion molecule(s) of the hiPS cells, E-cadherin-Fc (50 μg/ml) were added at the same time, followed by performing rotation culture at a speed of 100 rpm for 5 days. On Day 2 of the culture and thereafter (from 48 hours after the beginning of the culture), medium replacement was carried out every day with a medium to which E-cadherin-Fc was not added.
Aggregates were obtained in the same manner as in […] except that the concentration of E-cadherin-Fc in Example 3-1 was 100 μg/ml.
Morphology of cell aggregates in Examples 3-1 and 3-2, and Comparative Example 3-1 on Day 2 and Day 5 of the culture was observed using a phase-contrast microscope (product name, DM IRB; manufactured by LEICA). From the results shown in FIGS. 6 and 7, it can be seen that the size of the aggregates can be controlled also in cases where Essential 8® is used as the medium. On Day 5 of the culture, in the cases where E-cadherin-Fc was added, the size of the aggregates was larger than that on Day 2 of the culture, and the diameter of the aggregates was controlled at about 500 μm.

hiPS cells (TkDN4-M) [6] = assay: Measurement of glucose consumption, Essential 8 culture (Example 3); conditions: Examples 3-1 and 3-2 (50, 100 μg/ml) vs Comparative Example 3-1, Essential 8, FIG. 8
Description: as §2, §4

hiPS cells (TkDN4-M) [7] = assay: Measurement of number of cells, Essential 8 culture (Example 3); conditions: Examples 3-1 and 3-2 (50, 100 μg/ml) vs Comparative Example 3-1, Essential 8, after 5 days, FIG. 9
Description: as §3, §4

| Molecule | morphology of cell aggregates compared to Comparative Example 1-1 (hiPS cells (TkDN4-M) [1]; 5, 10, 20, 50 and 100 μg/ml, Day 2 of the culture, FIG. 2) | suppression of excessive aggregation and formation of uniform aggregates (hiPS cells (TkDN4-M) [1]; concentration within 10 to 50 μg/ml, Day 2, simple rotation culture) | glucose consumption compared to Comparative Example 1-1 (hiPS cells (TkDN4-M) [2]; Example 1-1, 5 μg/ml) | glucose consumption compared to Comparative Example 1-1 (hiPS cells (TkDN4-M) [2]; Example 1-2, 10 μg/ml) [times] | glucose consumption compared to Comparative Example 1-1 (hiPS cells (TkDN4-M) [2]; Example 1-3, 20 μg/ml) [times] | glucose consumption compared to Comparative Example 1-1 (hiPS cells (TkDN4-M) [2]; Example 1-4, 50 μg/ml) [times] | glucose consumption compared to Comparative Example 1-1 (hiPS cells (TkDN4-M) [2]; Example 1-5, 100 μg/ml) [times] | number of cells compared to Comparative Example 1-1 (hiPS cells (TkDN4-M) [3]; Example 1-2, 10 μg/ml) | number of cells compared to Comparative Example 1-1 (hiPS cells (TkDN4-M) [3]; Example 1-3, 20 μg/ml) | number of cells compared to Comparative Example 1-1 (hiPS cells (TkDN4-M) [3]; Example 1-4, 50 μg/ml) | number of cells compared to Comparative Example 1-1 (hiPS cells (TkDN4-M) [3]; Example 1-5, 100 μg/ml) | uniformity of aggregate diameters compared to Comparative Example 2-1 (hiPS cells (TkDN4-M) [4]) | aggregates compared to recombinant E-cadherin or neutralizing antibody against E-cadherin (hiPS cells (TkDN4-M) [4]; rotation culture for 1 day) | diameter of the aggregates (hiPS cells (TkDN4-M) [5]) | glucose consumption (hiPS cells (TkDN4-M) [6]) | number of cells (hiPS cells (TkDN4-M) [7]) |
| --- | --- | --- | --- | --- | --- | --- | --- | --- | --- | --- | --- | --- | --- | --- | --- | --- |
| B1 | better-controlled sizes | effective | about twice | 2 | 2.5 | 2.5 | 2 | about 1.8 times | about 2.5 times | about 3 times | about 2.3 times | more uniformly controlled diameters | larger aggregates having more uniform shapes | about 500 μm | excellent effect | excellent effect |
| B2 |  |  |  |  |  |  |  |  |  |  |  | more uniformly controlled diameters |  |  |  |  |
